According to the DeepSol protein solubility set:

Assay: soluble on expression in E. coli; label from the status in PepcDB or PDB records

Row | Sequence | soluble on expression in E. coli
1 | MGSDKIHHHHHHMNQKNILTWGDVAYASRIATGGSKQEWEALELIWQAWEIIIYTGLATYSNKRELLLVVIRFFAIVSFYLEFFNDYYWEYYINNYSREWLKGIHIIPDYNEYIIDCVNGLCCPILPKSEPNNLLLYFVENALQQVMQVPMDSLNSDSMIFKSVWEISHQQFQLDGDIYELQRREAELISESIFLDKIINLAEIHENYNQNNEFIRDEAAIIEIFFDEDNTDLEWMKCTNHIDFQKSQEVIDATNKFIAFFSCYQIKPNFSLKHCSEIIGFNETDLKRWIRTINRKKQIILSGSPGTGKTFIAKHLAEHLIGGSDGFSELLQFHPTYSYEDFIQGIRPQSQDGQLTYPLVPGRFLKFCKEAEYHQGTCVLIIDEINRANLAQVFGELMYLLEYRNREIPLAGGNTFRIPENVRIIGTMNTADRSIANIDHALRRRFAFIELRPNYDVLRRYHQKRGFAVEGLINILQQLNQAIADKNYEIGISFFLTDNLREDMDDIWPMEIEPYLEEYFFNQLAKVDEFRWDKIKDKLWI | not soluble
2 | MGSDKIHHHHHHMNRFIIADASKCIGCRTCEVACVVSHQEHQDCASLTPHTFQPRIHVIKGVNVSTATACRQCEDAPCANVCPNGAISRDKGFVHVMQERCIGCKTCVVACPYGAMEVVVRPVIRHSGAGLNVVAEKAEANKCDLCFHRESGPACMEVCPTHALVCVDRNKLEQMNIEKRRRTALAW | not soluble
3 | MGSDKIHHHHHHMNSGDIPATATFVNGTVNEKAATPRIPHQRPEGCPVSITRDSRAVALLWSFMNNDSSSRIAARLREWIATAAPGARLPSTRSLVAGYQASPVTVQKALQSLTAQGLIESRPGVGTFVRAVRTARPSDYGWQTAALRSPLAPLPSASTTMRDVANNAIAFHSGYPDRELLPERLVRAALTRAARGDAALSRPPAAGLPELQSWFARELGASTPAGTTPPNPSDVVVLPGSQSGLSSIFSALAGRGQPLLMESPTYWGAILAAAQAGVRVVPVPSGPDGPDPAELARAFDETGARLFYAQPNYANPTGAQWAPGRGEEVLEVVRGKGAFLVEDDWAHDFGITTSPVPVASRDDSGHVVYLRSLTKSVSPAIRIAAVIARGPARERILADRAAESMYVSGLLQAAALDVVTQPGWQTHLRSLRHQLQARRDLLVTSIREHAPQAHIEQVPKGGLNLWARLPDATDLDRLTRDCESRGVIIAAGREWFPAEPAGAFIRLNYSGSNPGAFPEGARIIGESIERNSS | not soluble
4 | MGSDKIHHHHHHMNTAAIYRQYQTYVRSDKSGWALDGCSDSALIAQAKQPGLHLKMCINRFDSGITLSRMRGGGTGAFPTEIHNFSHNCALFVMVSGQNRLQMGGREYRPSAGEIWLVRGELADVSETLLPDSGGMCALHLDFSLEKLRRWHDEGLLDERLFSPQTIGRFALQRLAQNAGTLTAAACPLLQRPFESDGFGLLADEADALELSARLLRFTFRRHDNGYRRRRIDEAADILNSEFARPLTIAEIARRVGLNECYLKRYFKAQTGETVAGRLRRLRLEHALALIESGSTIQAAMHFCGYRHAGRFNEAFRRHYGFLPSDVKKC | not soluble
5 | MGSDKIHHHHHHMNTLEKRQHEILTNPLHFCKKSGDFAKHSMSIKLSKNELFDVDFVTGIYFVEKGIVMKGTQIDDYIGYDQLLKPGDVCNFSSFMSSDLKRNIGAQLLSPSSSVITAVDRDFFIFMVEKHVSVEEFMLYQAKKEIMILQRRCLLNTLKVKDRVKHLIAAIGYEYGISNGDNIQIPQELSTTFLSKFMGITREYLSLTLSELKKEDYLLNTKIPVVINVEKLFNEIPYESLIL | not soluble
6 | MGSDKIHHHHHHMNVAILGNQARAMVNFWSVFIARLQADGHTVVCIIPPGDAEGDAALTSMGVRVRHYPLDRKGLNPVRDVATFAALYRIFRQERPDRLFCFTIKPVIYGATAAALARVPGRVAMITGLGYMFEADTPVKRLLNRVAVLMYRAALACVHTVFFQNEEDRAVFTAKGIVPAGTEVAMSRGTGVALDHFAPAETVTAPVTFLLVGRLIEAKGLYEYAEAARMLKARHPEARFRVLGPPEQGLGSVPMETINQWHREGVIEYMGQTRDVRPFLREASVVVLPSWREGTPCSVMEGMSMARAAIVTDAPGCREVVEDGVNGFMVPLRSPEALAAAMERFIEDPSLVQRMGRAGRDLAEREFDAEKVAAHIMRVMRLDAAPRAGGNPQ | not soluble
7 | MGSDKIHHHHHHMNVVVCIKQVPDTTNVRIDRKTNNLVREGVPSIINPDDERALELASQLKEKFGATVYVITMGPPQAKEALKDAIAFGLDEAVHLSDRTFAGADTLATTYTLYWGIKKIEERIGKIDLILTGKQAVDGDTGQVGPGLATRFGYALGAYVVRIEEIDPEKKEMVIVRRLDQGFEKIRLKLPAVLTITDELNKPRYADLPNLIRAIRYEPIVWTHKDLGLDPKKCGFFGSPTRVVSTNIPPARKGGDIISKNEDPEVAAEKLIEALKKFEAVRLVEALKPVLEGEKDE | not soluble
8 | MGSDKIHHHHHHMNYDDPKKKVGRNIKRLRLKAGIKSQAALAELCGWKSQSRVGNYEAGTRAVSAIDAETLAKVLNVTPAEILYGENNKDDDFVSMPSAQYSSGPYEEEDPFQLFKPKQELQNAEWHAGFELWDGDTPLRDDEVALPFYREVELAAGSGSTFVQENGGCKLRFAKSTLKKSRVEPSNAACVTVSGNSMLPVLRHGTTVGVDTSKKSIIDGEMYAIDHDGMLRVKMLYRTPGGGIRIKSYNNDEFPDEFIPPEKASDIKIIGWVFWWSVLNVWNN | not soluble
9 | MGSDKIHHHHHHMPAIIKQFFFKSHEMTLSDPRFLSLNQWLNAYFSDEVTPVLISGDASFRRYFRITTPDATFIAADSPPQLVPIAPFIALSNAYAAVGLTVPKVIHADAAQGFMLMSDLGDTQLLSVLNVQNVADYYRQALDLLPQVASVVASQHLDSGLVQPLPLYDEAFVRRELHIFTEWLLGTHLNLSLDESEQQMLSHSFDLLVDYALSQPSVGMHRDFHSRNLMLQAGELCVIDFQDAVVGPVTYDAVSLLRDCYIRWPQPLVADLMQYHYQQALALGFIPALTTLEQYQTWFDLMGLQRHIKAVGIFARLNYRDSKPAYMADIPLTLTYIVDIAMQYPELVPFAHWLTRRVLPAFTASQSLSEVKQ | not soluble
10 | MGSDKIHHHHHHMPAKIIDKIIEEIDKLPSPNVVVQRIIAVCSKPDASSTEVANTLMMDASLSARVLKLANSAYYGVPRKITTLSEAVMILGFKTVRNLALSVFTYDMVFKNSSSGIDREKLWEHFIASAIASETVAETMGYPLKEEIFIAGLLHDLGKVVYDLLFSDILETEAKIAQKTKKNLIDIEEELGIPPHSEVGAKLLRKWNFPDLLVLSAEFHHNVEGNPNELFVNQVSMVHIGDVIANLMMKGASLSWGDPKLSPFALNVLKVKPKTFLRILDKSKEKYNKAQEFLQID | not soluble
11 | MGSDKIHHHHHHMPANPLPDDDLADSDTDDTGSGEHGEGGEKVRSGIQSIEVGFRLLEVLTSEPRAMMLRDLAQRAGMSPAKAHRYLVSFSRLGVVSQDPVSGRYELGGFALQMGLARLARVDGVKLARIALTELRDRVDQTVGIAVWGNQGPTIVHWMESSHPAKASLKLGDVMPLLGSATGLLFAAYLPRSKTAAMLERELADTRRSPHHGGPRTLEEVDAVLADVRAHQAARVEGMLLPTIHAFCMPVFDAVGELALAIVALGQEGTFDIAWGGEMDTALRACAQKLSYELGYSPDARDA | not soluble
12 | MGSDKIHHHHHHMPDNPTIATLPDSQGHNHRADVQLNQLQCDSTKPNDIRPNAIMPSAIEPNAIKHESVVAEQKQKVIFIGLPRTGTTSVSVALLEQGLKVAHMAFTKAAFMQADAISDAPCFSDFKQLDKLFPDAKFVYIERELDSWVPSMQMLLSRMLPHLDAKSGRFHPIMKRSFRHSFGVGVVENPQDEQHLIDCYQRHKTEVVNYFAGRHDLLCIDVSQQGALGQLLAFMGLAATENQQNFPKLNVGRNVASWDEYKHPNKISANASGPDKRKFFDYKI | not soluble
